The supplement of paper PMC10065799, “High-throughput profiling of sequence recognition by tyrosine kinases and SH2 domains using bacterial peptide display” (eLife, 2023)

Legend:
Jak2 = Jak2 (UniProt O60674); test: phosphorylation enrichment, bacterial display (enrichment ratio); higher = better substrate or ligand; peptides without Tyr show the background
c-Src = test: as above
AncSZ = test: as above
Fyn = Fyn (UniProt P06241); test: as above
Fer (mouse) = test: as above
FGFR1 = FGFR1 (UniProt P11362); test: as above
EPHB2 = EPHB2 (UniProt P29323); test: as above
MERTK = MERTK (UniProt Q12866); test: as above
c-Abl (mouse) = test: as above
EPHB1 = EPHB1 (UniProt P54762); test: as above
Hck = Hck (UniProt P08631); test: as above
FGFR3 = FGFR3 (UniProt P22607); test: as above
Fes = Fes (UniProt P07332); test: as above
SHP2-C SH2 = test: SH2 binding enrichment of the phosphorylated peptide, bacterial display (enrichment ratio); higher = better substrate or ligand; peptides without Tyr show the background
Grb2 SH2 = Grb2 SH2 (UniProt P62993); test: as above
c-Src SH2 = test: as above
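Wherever SH2 binding enrichment of the phosphorylated peptide, bacterial display is given: peptide library displayed on the E. coli surface as eCPX fusions, selected cells deep-sequenced, score is each peptide's frequency after selection divided by its frequency in the input.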
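Wherever phosphorylation enrichment, bacterial display is given: 11-residue human phosphosite peptides and single-mutation variants displayed on the E. coli surface, counted by deep sequencing, each peptide's frequency after selection divided by its frequency in the unselected input library; frequency after pTyr selection over input frequency; kinase dosed for 20-30% of maximal phosphorylation in three min.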

FGFR3, sequence (P22607 whole entry, looked up): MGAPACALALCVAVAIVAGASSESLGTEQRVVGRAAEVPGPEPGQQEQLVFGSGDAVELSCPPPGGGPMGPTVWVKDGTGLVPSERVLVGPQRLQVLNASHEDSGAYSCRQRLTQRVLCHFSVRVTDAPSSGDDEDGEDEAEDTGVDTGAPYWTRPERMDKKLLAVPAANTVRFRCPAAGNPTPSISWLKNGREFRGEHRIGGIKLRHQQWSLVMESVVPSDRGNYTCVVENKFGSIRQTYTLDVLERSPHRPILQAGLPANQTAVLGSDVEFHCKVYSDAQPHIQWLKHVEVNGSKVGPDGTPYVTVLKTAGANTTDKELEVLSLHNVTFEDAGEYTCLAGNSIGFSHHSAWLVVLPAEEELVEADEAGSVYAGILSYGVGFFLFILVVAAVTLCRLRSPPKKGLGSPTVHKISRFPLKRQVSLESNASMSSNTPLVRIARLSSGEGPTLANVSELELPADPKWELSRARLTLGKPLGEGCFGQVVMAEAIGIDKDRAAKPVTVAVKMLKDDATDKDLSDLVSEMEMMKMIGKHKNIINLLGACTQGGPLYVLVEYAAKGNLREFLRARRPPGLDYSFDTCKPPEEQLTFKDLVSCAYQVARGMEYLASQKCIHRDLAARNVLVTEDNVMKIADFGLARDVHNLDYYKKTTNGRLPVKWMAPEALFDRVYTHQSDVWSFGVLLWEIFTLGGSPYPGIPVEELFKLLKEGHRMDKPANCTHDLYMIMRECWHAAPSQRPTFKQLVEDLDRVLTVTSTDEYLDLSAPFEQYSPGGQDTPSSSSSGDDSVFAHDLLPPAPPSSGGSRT
Grb2 SH2, sequence (P62993 whole entry, looked up): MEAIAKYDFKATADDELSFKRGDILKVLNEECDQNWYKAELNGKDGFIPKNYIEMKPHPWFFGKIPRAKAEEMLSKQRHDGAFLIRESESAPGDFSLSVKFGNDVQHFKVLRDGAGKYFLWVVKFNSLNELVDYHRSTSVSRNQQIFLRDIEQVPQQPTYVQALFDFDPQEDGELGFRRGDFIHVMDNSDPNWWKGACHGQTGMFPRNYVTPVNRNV
FGFR1, sequence (P11362 whole entry, looked up): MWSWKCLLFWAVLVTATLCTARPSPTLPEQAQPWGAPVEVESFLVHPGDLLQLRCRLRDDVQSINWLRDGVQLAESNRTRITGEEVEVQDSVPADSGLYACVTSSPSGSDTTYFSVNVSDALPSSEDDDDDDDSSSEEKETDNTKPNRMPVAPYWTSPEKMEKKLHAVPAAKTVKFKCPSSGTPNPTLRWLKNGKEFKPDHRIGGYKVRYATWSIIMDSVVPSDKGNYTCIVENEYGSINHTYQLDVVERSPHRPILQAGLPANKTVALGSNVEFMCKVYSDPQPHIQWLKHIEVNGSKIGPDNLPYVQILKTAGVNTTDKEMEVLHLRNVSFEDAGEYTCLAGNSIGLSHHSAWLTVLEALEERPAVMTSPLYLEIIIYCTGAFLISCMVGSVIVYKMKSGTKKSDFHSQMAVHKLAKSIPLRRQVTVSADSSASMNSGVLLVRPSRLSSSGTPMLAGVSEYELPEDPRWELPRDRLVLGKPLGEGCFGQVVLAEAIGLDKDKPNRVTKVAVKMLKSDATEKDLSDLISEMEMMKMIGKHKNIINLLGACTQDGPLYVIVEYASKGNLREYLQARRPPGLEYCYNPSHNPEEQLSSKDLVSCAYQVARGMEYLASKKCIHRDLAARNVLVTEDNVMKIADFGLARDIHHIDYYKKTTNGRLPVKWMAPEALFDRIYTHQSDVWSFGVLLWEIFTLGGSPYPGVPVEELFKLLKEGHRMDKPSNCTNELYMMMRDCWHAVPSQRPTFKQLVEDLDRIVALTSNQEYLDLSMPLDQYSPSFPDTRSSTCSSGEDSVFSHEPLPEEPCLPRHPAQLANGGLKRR
Fyn, sequence (P06241 whole entry, looked up): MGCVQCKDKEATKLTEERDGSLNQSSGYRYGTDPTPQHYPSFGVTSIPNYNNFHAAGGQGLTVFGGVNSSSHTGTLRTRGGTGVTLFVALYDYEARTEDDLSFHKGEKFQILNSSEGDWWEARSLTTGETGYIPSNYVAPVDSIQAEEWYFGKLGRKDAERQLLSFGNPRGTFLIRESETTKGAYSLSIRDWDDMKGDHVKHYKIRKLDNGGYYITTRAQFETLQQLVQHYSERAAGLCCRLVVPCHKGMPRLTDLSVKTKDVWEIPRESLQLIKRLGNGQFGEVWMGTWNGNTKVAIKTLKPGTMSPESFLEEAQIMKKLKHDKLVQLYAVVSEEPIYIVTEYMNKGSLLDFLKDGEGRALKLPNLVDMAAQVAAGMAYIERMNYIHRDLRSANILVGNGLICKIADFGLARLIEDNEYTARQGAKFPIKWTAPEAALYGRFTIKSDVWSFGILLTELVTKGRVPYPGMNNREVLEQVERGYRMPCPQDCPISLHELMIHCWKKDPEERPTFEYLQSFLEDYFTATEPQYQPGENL
Jak2, sequence (O60674 whole entry, looked up): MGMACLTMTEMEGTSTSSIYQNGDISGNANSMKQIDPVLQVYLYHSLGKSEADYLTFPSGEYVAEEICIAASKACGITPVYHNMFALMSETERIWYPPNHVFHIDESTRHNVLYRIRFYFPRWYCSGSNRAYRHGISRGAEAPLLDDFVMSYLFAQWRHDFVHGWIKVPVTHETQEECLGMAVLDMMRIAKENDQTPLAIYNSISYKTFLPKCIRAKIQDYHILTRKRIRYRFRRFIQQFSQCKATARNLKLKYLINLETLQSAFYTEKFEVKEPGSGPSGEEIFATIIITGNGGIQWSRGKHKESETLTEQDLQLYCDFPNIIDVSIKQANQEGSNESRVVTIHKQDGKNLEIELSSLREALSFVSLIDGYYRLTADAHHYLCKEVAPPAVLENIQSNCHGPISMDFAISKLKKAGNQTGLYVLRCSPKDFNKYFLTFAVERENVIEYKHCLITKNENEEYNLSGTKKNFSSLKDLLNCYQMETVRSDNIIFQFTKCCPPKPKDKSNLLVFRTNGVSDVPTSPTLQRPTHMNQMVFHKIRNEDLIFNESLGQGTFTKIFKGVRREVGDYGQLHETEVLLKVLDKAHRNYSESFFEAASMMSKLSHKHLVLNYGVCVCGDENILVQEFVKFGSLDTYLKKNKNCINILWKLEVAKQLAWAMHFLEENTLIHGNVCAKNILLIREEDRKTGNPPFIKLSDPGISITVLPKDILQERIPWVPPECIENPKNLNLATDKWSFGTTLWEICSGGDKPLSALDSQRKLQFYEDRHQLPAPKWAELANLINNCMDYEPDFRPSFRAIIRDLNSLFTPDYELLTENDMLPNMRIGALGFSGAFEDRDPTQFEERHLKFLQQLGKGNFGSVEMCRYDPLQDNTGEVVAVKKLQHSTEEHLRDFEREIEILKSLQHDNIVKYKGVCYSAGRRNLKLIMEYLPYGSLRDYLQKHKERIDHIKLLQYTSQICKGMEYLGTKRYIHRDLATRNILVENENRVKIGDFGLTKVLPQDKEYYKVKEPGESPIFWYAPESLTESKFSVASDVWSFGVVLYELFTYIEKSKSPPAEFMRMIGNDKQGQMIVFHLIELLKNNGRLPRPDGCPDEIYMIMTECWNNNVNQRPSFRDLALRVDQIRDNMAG
MERTK, sequence (Q12866 whole entry, looked up): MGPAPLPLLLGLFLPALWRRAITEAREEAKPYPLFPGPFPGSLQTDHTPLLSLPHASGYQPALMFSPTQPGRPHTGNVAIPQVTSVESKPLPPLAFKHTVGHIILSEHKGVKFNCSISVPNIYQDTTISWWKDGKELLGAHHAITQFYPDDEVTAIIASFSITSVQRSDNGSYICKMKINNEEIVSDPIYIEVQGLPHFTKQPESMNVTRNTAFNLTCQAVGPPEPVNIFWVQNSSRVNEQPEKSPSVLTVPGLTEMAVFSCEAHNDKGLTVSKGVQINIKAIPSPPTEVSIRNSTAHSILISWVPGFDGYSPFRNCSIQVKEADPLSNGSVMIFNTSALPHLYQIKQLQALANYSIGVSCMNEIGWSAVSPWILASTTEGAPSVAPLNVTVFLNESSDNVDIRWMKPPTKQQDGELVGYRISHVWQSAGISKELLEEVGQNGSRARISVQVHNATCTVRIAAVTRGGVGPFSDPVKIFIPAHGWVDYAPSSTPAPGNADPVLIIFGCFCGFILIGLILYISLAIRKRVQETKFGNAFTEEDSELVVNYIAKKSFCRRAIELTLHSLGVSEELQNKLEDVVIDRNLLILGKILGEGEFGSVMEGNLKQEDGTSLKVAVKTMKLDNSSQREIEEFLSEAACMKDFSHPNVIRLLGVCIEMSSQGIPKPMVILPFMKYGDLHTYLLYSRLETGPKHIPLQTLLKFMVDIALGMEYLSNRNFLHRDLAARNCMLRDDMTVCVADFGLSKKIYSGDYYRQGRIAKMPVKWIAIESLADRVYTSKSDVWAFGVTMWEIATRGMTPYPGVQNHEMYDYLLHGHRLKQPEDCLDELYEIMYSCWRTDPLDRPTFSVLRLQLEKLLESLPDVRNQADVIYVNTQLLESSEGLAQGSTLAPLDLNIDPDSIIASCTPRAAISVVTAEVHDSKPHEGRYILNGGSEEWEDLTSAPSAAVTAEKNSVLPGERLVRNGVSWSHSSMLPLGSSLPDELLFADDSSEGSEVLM
Hck, sequence (P08631 whole entry, looked up): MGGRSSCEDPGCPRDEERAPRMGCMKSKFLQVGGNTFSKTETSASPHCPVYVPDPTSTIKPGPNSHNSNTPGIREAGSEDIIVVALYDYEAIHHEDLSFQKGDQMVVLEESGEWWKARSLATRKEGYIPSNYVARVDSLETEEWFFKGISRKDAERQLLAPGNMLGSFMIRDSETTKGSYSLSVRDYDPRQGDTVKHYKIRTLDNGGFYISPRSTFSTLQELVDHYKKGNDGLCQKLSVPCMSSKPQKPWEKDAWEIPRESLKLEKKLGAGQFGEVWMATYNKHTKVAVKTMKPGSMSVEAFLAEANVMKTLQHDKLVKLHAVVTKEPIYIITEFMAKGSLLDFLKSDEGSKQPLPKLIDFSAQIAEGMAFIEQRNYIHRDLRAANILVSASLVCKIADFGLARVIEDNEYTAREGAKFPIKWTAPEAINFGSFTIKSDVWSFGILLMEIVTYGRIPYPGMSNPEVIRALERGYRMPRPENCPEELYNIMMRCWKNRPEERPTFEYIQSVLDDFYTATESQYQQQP

Sequence | phosphorylation enrichment (Jak2) | phosphorylation enrichment (c-Src) | phosphorylation enrichment (AncSZ) | phosphorylation enrichment (Fyn) | phosphorylation enrichment (Fer (mouse)) | phosphorylation enrichment (FGFR1) | phosphorylation enrichment (EPHB2) | phosphorylation enrichment (MERTK) | phosphorylation enrichment (c-Abl (mouse)) | phosphorylation enrichment (EPHB1) | phosphorylation enrichment (Hck) | phosphorylation enrichment (FGFR3) | phosphorylation enrichment (Fes) | SH2 binding enrichment (SHP2-C SH2) | SH2 binding enrichment (Grb2 SH2) | SH2 binding enrichment (c-Src SH2)
KINKMYSDRAM | 0.419 | 0.345 | 0.53 | 0.361 | 0.336 | 0.417 | 0.377 | 0.423 | 0.467 | 0.311 | 0.396 | 0.371 | 0.624 | 0.639 | 0.632 | 0.418
KKFPDYIQIAR [SGMS2_Y59_M64R_YF] | 1.15 | 0.488 | 0.848 | 0.432 | 0.399 | 4.29 | 0.649 | 0.421 | 0.657 | 3.85 | 0.478 | 2.26 | 0.713 | 0.884 | 1.13 | 0.825
KKGIVYIFNGR [ITGAV_Y404] | 0.868 | 0.366 | 0.768 | 0.452 | 0.437 | 0.417 | 0.507 | 0.428 | 0.565 | 0.403 | 0.423 | 0.501 | 0.957 | 1.61 | 2.3 | 1.86
KKKKQYKDKFL [CASK_Y708_YF] | 0.724 | 0.739 | 0.893 | 0.701 | 0.502 | 0.572 | 0.634 | 0.782 | 0.699 | 0.687 | 0.589 | 0.55 | 0.642 | 0.408 | 0.683 | 0.453
KKKKQYKGKYL [CASK_Y708_D710G] | 0.507 | 0.75 | 0.667 | 0.57 | 0.444 | 0.474 | 0.54 | 0.629 | 0.529 | 0.502 | 0.513 | 0.584 | 0.582 | 0.302 | 0.669 | 0.436
KKYFSYAWPFY [BRDT_Y291_H288Y] | 1.24 | 0.435 | 0.937 | 0.383 | 0.395 | 0.475 | 0.452 | 1.96 | 0.712 | 0.497 | 0.415 | 0.621 | 1.03 | 1.66 | 1.93 | 1.43
KLFFIYTPGTT [SLC27A4_Y245_S247P_YF] | 1.45 | 0.46 | 1.49 | 0.447 | 0.521 | 0.553 | 0.675 | 0.363 | 0.848 | 0.637 | 0.509 | 0.877 | 1.49 | 0.565 | 0.598 | 0.39
KLFRVYCDMNT [FGB_Y269_P265L_YF] | 1.17 | 0.463 | 1.11 | 0.463 | 0.523 | 0.548 | 0.619 | 0.432 | 0.838 | 0.777 | 0.471 | 0.701 | 1.33 | 0.65 | 0.75 | 0.918
KLIETYFSKNF [PLP1_Y50_YF] | 0.87 | 0.558 | 0.942 | 0.474 | 0.4 | 0.449 | 0.452 | 0.427 | 0.668 | 0.474 | 0.519 | 0.589 | 0.99 | 0.626 | 0.9 | 0.542
KLPDAYEPLIL [G6PD_Y437_R439P] | 0.921 | 0.752 | 1.14 | 0.502 | 2.5 | 0.53 | 0.494 | 0.498 | 0.79 | 0.55 | 1.08 | 0.674 | 1.1 | 0.917 | 0.964 | 1.49
KLPDAYERLIL [G6PD_Y437] | 0.591 | 0.542 | 0.756 | 0.491 | 0.634 | 0.992 | 0.49 | 0.522 | 0.796 | 0.545 | 0.582 | 0.561 | 0.944 | 0.723 | 0.949 | 2.48
KNDSKYVVKGN [KIT_Y823_N822K] | 0.677 | 0.473 | 0.52 | 0.314 | 0.258 | 0.382 | 0.317 | 0.316 | 0.531 | 0.326 | 0.379 | 0.444 | 0.56 | 0.653 | 0.999 | 0.572
KNEVLYDEENH [ARFGEF1_Y314_G316E] | 1.3 | 0.582 | 1.25 | 0.537 | 0.5 | 0.591 | 0.618 | 0.401 | 0.997 | 0.568 | 0.547 | 0.671 | 1.4 | 0.789 | 0.664 | 0.636
KNNDGYIDYAE [MCFD2_Y135] | 1.01 | 0.465 | 1.17 | 0.536 | 0.464 | 0.606 | 0.658 | 0.474 | 0.656 | 0.538 | 0.625 | 0.736 | 1.13 | 0.695 | 0.945 | 1.01
KNRDVYSSDFF [USP24_Y2134_YF] | 0.693 | 0.952 | 0.651 | 0.833 | 0.429 | 0.718 | 1.73 | 3.39 | 0.752 | 1.69 | 0.832 | 0.544 | 0.828 | 0.55 | 0.916 | 0.588
KPGVNYFFQVS | 1.28 | 0.408 | 1.15 | 0.538 | 0.582 | 0.85 | 0.577 | 0.508 | 0.801 | 0.695 | 0.588 | 1.09 | 1.38 | 1.18 | 0.993 | 0.606
